B1: SaTPS2 (Santalum album) (protein)
chain: MDSATLKVLCDNDANVKIEKNPSGNRRSANYEPSIWNYDFLQSLDSCYNIVEEKHLKLAEKLKGEVKSIIKAPMEPLAKLELVDVVQRLGLKHLFETEIKEALFTVYKDGSDAWWLGHLYATSLRFRLLRQAGLFIPQDVFEIFKSATGEFDMKLRDNIEGLLSLYEASFLGWKGENILDEAKAFTTEYLKNAWENIPQKWLAIRVKHALDLPLHWRVPRFEARWFIDAYEREENINPTLLKLAKLDFNMVQSIHQRELGKLARWWVSTGLDKLSFARNNLMQSYMYGTAVTSDPQFKLARETIVKTGSLITIVDDVYDVFGSIDELELYTNFVDRWNCTEVDELPNTIKMIFLAMFNTANEIGFQIQTERGFNGIPALSKAWDDLCKSYIKEAKWYHGKHKPTLQEYLGNAVVSVGFPLLMTTGYVAIADSEGALDKIDRIPDLVRYACLLNRLVNDLATSSDELARGDTLKSIECYMNQTGASEEIAREHIKGLIEDTWKTLNECSFDDSQFGEPFVSFNLNSVRGSHFFYQHGDGYGVTNSWTKDDLMSILINPISVDDES
notes: full-length ORF, 6His-tagged, pET-28a, E. coli Rosetta 2 (DE3), Ni-NTA purified; no plastid transit peptide; SaTPS1 to 3 span 564 to 604 residues
B2: SaTPS3 (Santalum album) (protein)
chain: MESFVFLKSATSNANNSVKVDNRRSANYQSSVWDYNFLRLLGTTYTCCDTMEEEHVRIAEKLKEEVKSLIMGSMGPLANLEFIDAVQRLGLKYQFETEIKEALFAIYKDSNEEWWANDLHATALRFRLLRRNLLFVSQDVFERFKDKKTHDFSGELCEDVKGILSLYEACFLGWDGERVLDKARIFTTTHLNAMNRSTVSDGGSLDKKVKHALELPLHWRAPRVEARWFIDVYEQDPNMNLALLKLAKLDFNMVQSIHQKEVGELSRWWVRTGLDKLSFARNGLMQNYMYCCAVTFEPQFAHVREALTKIGSVLTATDDLYDVYGSLEELELFTSFIDRWDIKEIDELPRDIRLIFLAMYNLSNEIGFDILRDRDFNGVPYVAKMLGDVCSAYLKEARWYHGGYKPRMEEYLDNGLVSIGMLPLLAVAYMLTTDNLSKETVDHVAAAAPLVRYCSLLLRMIDDLGTSSDELRRGDTLKSVECYMNQAGASEEIAREHIEELVRNTWKKMNQCCFGDGQSSFADPFLSFTLNSVRGAHFFYQFGDGFGVTESWTKDTVLSVLFQPIPLDED
notes: as for B1

Columns and labels:
Assay in all cases: malachite green phosphate release after HCl stop, Michaelis-Menten fit
Assay type in all cases: biochemical, Santalum album
Conditions in all cases: 10 mM Mg2+, 25 mM HEPES, 30°C, 10 min
[1] = substrate: CC(C)=CCC/C(C)=C/CC/C(C)=C/CO[P@@](=O)(O)OP(=O)(O)O
Source text: (§1) malachite green phosphate release after HCl stop, Michaelis-Menten fit on SaTPS2

[2] = substrate: CC(C)=CCC/C(C)=C/COP(=O)(O)OP(=O)(O)O
Source text: as §1

[3] = substrate: CC(C)=CCC/C(C)=C/CC/C(C)=C/CO[P@@](=O)(O)OP(=O)(O)O; remark: listed apart in the source
Source text: (§2) malachite green phosphate release after HCl stop, Michaelis-Menten fit on SaTPS3

[4] = substrate: CC(C)=CCC/C(C)=C/COP(=O)(O)OP(=O)(O)O; remark: listed apart in the source
Source text: as §2

| Protein | Km [1] | kcat [1] | kcat/Km [1] | Km [2] | kcat [2] | kcat/Km [2] | Km [3] | kcat [3] | kcat/Km [3] | Km [4] | kcat [4] | kcat/Km [4] |
| --- | --- | --- | --- | --- | --- | --- | --- | --- | --- | --- | --- | --- |
| B1 | 12.15 ± 1.32 µM | 0.2 ± 0.008 s⁻¹ | 16400 M⁻¹ s⁻¹ | 12.27 ± 1.32 µM | 0.189 ± 0.007 s⁻¹ | 15400 M⁻¹ s⁻¹ | – | – | – | – | – | – |
| B2 | – | – | – | – | – | – | 16.29 ± 1.48 µM | 0.171 ± 0.006 s⁻¹ | 10500 M⁻¹ s⁻¹ | 14.38 ± 1.20 µM | 0.257 ± 0.008 s⁻¹ | 17900 M⁻¹ s⁻¹ |

— paper PMC6437863, “Identification and functional characterization of three new terpene synthase genes involved in chemical defense and abiotic stresses in Santalum album” (BMC Plant Biology, 2019)
